B1: 43E2, fully human IgG4 CCR5 monoclonal antibody (secreted by cell line NS0mAb43E2) (antibody, V domains shown)
VH: QVQLVESGGGVVQPGRSLRLSCAASGFTLSGYGMHWVRQAPGKGLEWVSLISYDGSNKYYADSVKGRFTISRDDSKNTLYLRMNSLRAEDTAVYYCARGRNDFWSGYYTAGMDVWGQGTTVTVSS
VL: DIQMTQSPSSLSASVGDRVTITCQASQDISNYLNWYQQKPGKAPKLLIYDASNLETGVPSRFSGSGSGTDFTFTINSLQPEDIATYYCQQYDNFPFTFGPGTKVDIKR
notes: also called Eu-43E2
B2: 43E2/AK38181, fully human IgG4 CCR5 monoclonal antibody (secreted by cell line NS0mAb43E2/AK38181) (antibody, V domains shown)
VH: B1 VH
VL: DIQMTQSPSSLSASVGDRVTITCQASQGIRKYLNWYQQKPGKVPKLLIYDASNLETGVPSRFSGSGSGTDFTFAISSLQPEDTATYYCQQYDDFPFTFGQGTRLEIKR
notes: also called Eu-43E2/AK38181

Assays:
[1] = target: T1, Human G-protein Chemokine Receptor (CCR5) HDGNR10 (human, UniProt P51681 1-352); test: cell-based or functional assay
T1 sequence (P51681 whole entry): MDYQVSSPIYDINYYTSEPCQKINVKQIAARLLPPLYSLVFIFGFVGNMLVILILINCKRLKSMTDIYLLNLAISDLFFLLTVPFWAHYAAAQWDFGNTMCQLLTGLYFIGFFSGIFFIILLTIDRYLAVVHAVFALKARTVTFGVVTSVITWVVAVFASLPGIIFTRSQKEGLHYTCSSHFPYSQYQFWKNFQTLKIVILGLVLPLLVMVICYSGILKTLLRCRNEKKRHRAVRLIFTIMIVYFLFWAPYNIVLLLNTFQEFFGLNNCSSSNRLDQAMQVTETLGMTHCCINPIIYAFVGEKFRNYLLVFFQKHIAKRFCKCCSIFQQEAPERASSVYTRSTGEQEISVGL

[2] = target: T1, Human G-protein Chemokine Receptor …; test: cell-based or functional assay; remark: listed apart in the source
[3] = target: T1, Human G-protein Chemokine Receptor …; test: cell-based or functional assay; remark: listed apart in the source
[4] = target: T1, Human G-protein Chemokine Receptor …; test: cell-based or functional assay; remark: listed apart in the source
[5] = target: T1, Human G-protein Chemokine Receptor …; test: cell-based or functional assay; remark: listed apart in the source
[6] = target: T1, Human G-protein Chemokine Receptor …; test: cell-based or functional assay; remark: listed apart in the source
[7] = target: T1, Human G-protein Chemokine Receptor …; test: saturation binding of Eu-labelled antibody to CEM.NKR-CCR5 transfected cells, time resolved fluorometry
Text: (§1) The 43E2 and 43E2/AK38181 antibodies were labeled with Europium (Eu) using Dissociation-Enhanced Lanthanide Fluorescence Immunoassay (DELFIA™) Eu-labeling kit (Catalog #1244-302, Perkin Elmer Life Sciences, Boston, Mass.) following the manufacturer's instructions. The labeling agent is the Eu-chelate of N1-(p-isothiocynateobenzyl) diethylenetriamine N1, N2, N3, N3-tetraacetic acid (DTTA). The DTTA group forms a stable complex with Eu³⁺ and the isothiocynate group reacts with primary amino groups on the antibodies at alkaline pH to form a stable, covalent thiourea bond. […] The Eu³⁺ content and protein concentration of each labeled antibody was determined.
(§2) The Eu-43E2 and Eu-43E2/AK38181 saturation binding assays were performed in 96 well plates, with 0.3-0.5 million CEM.NKR-CCR5 transfected cells per well, and various concentrations of Eu-43E2 and Eu-43E2/AK38181 in the absence or presence of 100-fold excess of unlabeled CCR5mAb004 for 1 hour at room temperature (RT). […] The fluorescence emitted from the released Eu was determined by time resolved fluorometry (VICTOR 1420 DELFIA™ fluorometer, Wallac Oy, Turku, Finland). The data were analyzed on Prizm software (GraphPad Software, San Diego, Calif.) to determine the equilibrium dissociation constant (Kd).

[8] = target: T1, Human G-protein Chemokine Receptor …; test: saturation binding of Eu-labelled antibodies to CEM.NKR-CCR5 transfected cells
Text: as §1, §2

| Binder | IC50 of entry of HIV-1-luciferase pseudotyped with env of 92BR025 (clade B) into U87/CD4/CCR5 cells [2] [nM] | IC50 of entry of HIV-1-luciferase pseudotyped with env of 92RW009 (clade A) into U87/CD4/CCR5 cells [2] [nM] | IC50 of entry of HIV-1-luciferase pseudotyped with env of 92TH001 (clade E) into U87/CD4/CCR5 cells [2] [nM] | IC50 of entry of HIV-1-luciferase pseudotyped with env of 92UG005 (clade D) into U87/CD4/CCR5 cells [2] [nM] | IC50 of entry of HIV-1-luciferase pseudotyped with env of 93IN101 (clade C) into U87/CD4/CCR5 cells [2] [nM] | IC50 of entry of HIV-1-luciferase pseudotyped with env of 301657 (clade B) into U87/CD4/CCR5 cells [2] [nM] | IC50 of entry of HIV-1-luciferase pseudotyped with env of 301714 (clade B) into U87/CD4/CCR5 cells [2] [nM] | IC50 of entry of HIV-1-luciferase pseudotyped with env of 302056 (clade B) into U87/CD4/CCR5 cells [2] [nM] | IC50 of entry of HIV-1-luciferase pseudotyped with env of 'Enfuvirtide Resistant' (B/Enfuvirtide Resistant) into U87/CD4/CCR5 cells [2] [nM] | IC50 of entry of HIV-1-luciferase pseudotyped with env of ASJM108 (clade B) into U87/CD4/CCR5 cells [2] [nM] | IC50 of entry of HIV-1-luciferase pseudotyped with env of ASM80 (clade B) into U87/CD4/CCR5 cells [2] [nM] | IC50 of entry of HIV-1-luciferase pseudotyped with env of DU151 (clade C) into U87/CD4/CCR5 cells [2] [nM] | IC50 of entry of HIV-1-luciferase pseudotyped with env of JRCSFSDM DIM (B/Enfuvirtide Resistant) into U87/CD4/CCR5 cells [2] [nM] | IC50 of entry of HIV-1-luciferase pseudotyped with env of JRFL (clade B) into U87/CD4/CCR5 cells [2] [nM] | IC50 of entry of HIV-1-luciferase pseudotyped with env of RU570 (clade G) into U87/CD4/CCR5 cells [2] [nM] | Mean IC50 over the panel of HIV-1-luciferase pseudotyped viruses, entry into U87/CD4/CCR5 cells [2] [nM] | Median IC50 over the panel of HIV-1-luciferase pseudotyped viruses, entry into U87/CD4/CCR5 cells [2] [nM] | Median IC50, inhibition of HIV-1-luciferase pseudotyped viruses [3] [nM] | IC50 (read off the curve), HIV-1-JRFL entry, Donor 1 target cells [4] [nM] | IC50 (read off the curve), HIV-1-JRFL entry, Donor 2 target cells [5] [nM] | other results |
| --- | --- | --- | --- | --- | --- | --- | --- | --- | --- | --- | --- | --- | --- | --- | --- | --- | --- | --- | --- | --- | --- |
| B1 | 5.6 | 3.2 | 1.2 | 2.4 | 1 | 22.5 | 35.9 | 8 | 8.5 | 8.7 | 7.7 | 2.2 | 9.7 | 5.5 | 5.2 | 8.4 | 5.8 | 5.8 | ~1000 | ~800 | percent of HIV-1-JRFL entry blocked at the highest concentrations tested (up to 2000 nM) [1]: ≤ 60%; IC50 (read off the curve), HIV-1-JRFL entry, Donor 3 target cells [6]: ~800 nM; Kd [7]: 2.36 nM |
| B2 | 1 | 1.1 | 0.6 | 1.4 | 1.1 | 4.4 | 5 | 2.3 | 2.5 | 2.2 | 2 | 1.3 | 2.8 | 2.2 | 1.7 | 2.1 | 1.7 | 1.7 | ~100 | ~60 | fold lower IC50 than 43E2, HIV-1-JRFL entry into activated human T-cells [1]: ≥ 10 fold; fold lower IC50 than 43E2, inhibition of HIV-1 entry into U87/CD4/CCR5 cells [1]: ~3 fold; fold lower IC90 than 43E2, inhibition of HIV-1 entry into U87/CD4/CCR5 cells [1]: ~10 fold; IC50 (read off the curve), HIV-1-JRFL entry, Donor 3 target cells [6]: ~20 nM; fold difference in binding affinity against 43E2 [8]: ~2 fold; Kd [7]: 1.18 nM |

Source: US20070122405A1 (Human Genome Sciences, published 2007)
